Results published in PMC2799420.

Target: Lyngbya majuscula JHB protein 7968 (Lyngbya majuscula JHB)
Test: PAGE analysis; kind of PAGE (native or SDS) and conditions not told; mentioned only in the discussion

stoichiometry N: 2
Substance: Lyngbya majuscula JHB protein 7968 (natural protein)
